Assay results from article PMC3858243.

Tested on: 30S ribosomal subunit (with S1)
Assay: filter binding
Details: no initiator tRNA; Not given in the material for EMSA, SPR and filter binding (buffer with monovalent ions and MgCl2; RNA renatured 90°C 1 min, ice, then 25°C 30 min)

Substance: rpsO mRNA
- Kd: 1000 nM

Substance: rpsOSD mRNA
- binding signal (fold higher affinity than WT rpsO): 5

Substance: sodB mRNA
- Kd: 1000 nM

Substance: thrS mRNA
- Kd: 1000 nM

Substance: thrSSD mRNA
- binding signal (fold higher affinity than WT thrS): 5
